Source: US20140087995A1 (published 2014)
One block for each binder: values may come before it. Numbered stars: 1 amine (or outer) side, 2 acyl side, 3 side chain; on linkers, the order of the positions; unused ones are H or OH. Bridge positions count the residues as written; N and C are the ends. Side chains are listed from the residue outwards. Ends that are not written are not given here. * marks the point of attachment. C20 diacid = O=C(O)CCCCCCCCCCCCCCCCCCC(=O)*; γGlu = O=C(O)[C@H](CCC(=O)[*:2])N[*:1]

Assays:
[1] = target: T1, rat calcitonin receptor (rat, UniProt P32214 25-516); test: ratio of binding IC50s: rat calcitonin receptor over rat amylin receptor (reference)
T1 construct: whole, on cells; also called rCTR; rat calcitonin (a) receptor
T1 sequence (looked up): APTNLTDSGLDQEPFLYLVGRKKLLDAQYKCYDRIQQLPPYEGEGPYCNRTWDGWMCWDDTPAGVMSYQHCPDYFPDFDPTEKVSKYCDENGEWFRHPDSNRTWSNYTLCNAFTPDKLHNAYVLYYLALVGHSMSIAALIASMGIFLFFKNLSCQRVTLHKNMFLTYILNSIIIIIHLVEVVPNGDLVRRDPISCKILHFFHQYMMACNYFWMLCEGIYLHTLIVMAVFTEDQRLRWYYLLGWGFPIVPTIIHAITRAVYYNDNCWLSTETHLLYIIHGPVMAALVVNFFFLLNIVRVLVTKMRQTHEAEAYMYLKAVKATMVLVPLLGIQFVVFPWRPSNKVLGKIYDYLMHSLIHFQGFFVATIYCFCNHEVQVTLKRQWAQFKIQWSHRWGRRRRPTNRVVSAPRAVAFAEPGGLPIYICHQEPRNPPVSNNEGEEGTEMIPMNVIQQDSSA

[2] = target: T1, rat calcitonin receptor; test: SPA competition with 125I-calcitonin, membranes of BHK cells with rat calcitonin receptor (Assay VIII)
[3] = target: T2, rat amylin receptor (rat calcitonin receptor + rat RAMP 3) (rat, UniProt P32214 25-516; Q9JJ73 23-147); test: SPA competition with 125I-rat amylin, membranes of BHK cells with rat calcitonin receptor + rat RAMP3 (Assay VI)
T2 construct: whole, on cells; also called rAmylin-R; rat amylin 3(a) receptor
T2 sequence (looked up) 1: T1 sequence (looked up)
T2 sequence (looked up) 2: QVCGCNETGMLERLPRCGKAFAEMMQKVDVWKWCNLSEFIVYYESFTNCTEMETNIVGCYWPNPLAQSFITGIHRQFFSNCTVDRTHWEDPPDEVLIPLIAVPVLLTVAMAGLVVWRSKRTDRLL

[4] = target: T3, human calcitonin receptor (human, UniProt P30988 25-474); test: ratio of binding IC50s: human calcitonin receptor over human amylin receptor (reference)
T3 construct: whole, on cells; also called hCTR; hCT
T3 sequence (looked up): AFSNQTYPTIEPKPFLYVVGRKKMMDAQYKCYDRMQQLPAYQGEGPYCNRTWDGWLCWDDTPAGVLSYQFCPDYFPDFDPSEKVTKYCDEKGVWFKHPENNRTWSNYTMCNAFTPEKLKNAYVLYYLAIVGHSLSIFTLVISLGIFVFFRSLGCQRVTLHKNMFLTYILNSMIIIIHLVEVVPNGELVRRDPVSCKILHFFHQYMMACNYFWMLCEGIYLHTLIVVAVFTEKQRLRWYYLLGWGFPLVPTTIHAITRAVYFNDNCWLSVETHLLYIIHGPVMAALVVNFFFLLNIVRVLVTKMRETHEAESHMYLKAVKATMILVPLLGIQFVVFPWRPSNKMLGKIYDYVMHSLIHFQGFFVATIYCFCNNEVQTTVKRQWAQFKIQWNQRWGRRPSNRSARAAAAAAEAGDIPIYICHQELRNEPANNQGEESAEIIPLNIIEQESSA
Method in brief: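 Membranes (35 ng/μL final) + SPA beads, 50 mM Hepes pH 7.4 buffer with 1 mM CaCl2, 5 mM MgCl₂, 0.1% OA, 0.02% Tween20; 120 min, 25° C, shaking; centrifuged, counted; IC₅₀ by one-site binding competition.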

Ratio rCT/rAmylin binding [1]: 85.4 | IC50 [2]: 14.7 nM | IC50 [3]: 0.172 nM | Ratio hCT/hAmylin binding [4]: 51.6
B1: N^ε1-[(4S)-4-carboxy-4-(19-carboxynonadecanoylamino)butanoyl]-[His14,Arg17,Pro21,Pro27,Pro34]-h-amylin (peptide)
peptide: K([γGlu-C20 diacid])CNTATCATQRLAHFLRHSSPNFGAIPSSTNVGPNTY-NH2
modifications: disulfide 2-7; N-terminus assumed
SMILES: CC[C@H](C)[C@H](NC(=O)[C@H](C)NC(=O)CNC(=O)[C@H](Cc1ccccc1)NC(=O)[C@H](CC(N)=O)NC(=O)[C@@H]1CCCN1C(=O)[C@H](CO)NC(=O)[C@H](CO)NC(=O)[C@H](Cc1c[nH]cn1)NC(=O)[C@H](CCCNC(=N)N)NC(=O)[C@H](CC(C)C)NC(=O)[C@H](Cc1ccccc1)NC(=O)[C@H](Cc1c[nH]cn1)NC(=O)[C@H](C)NC(=O)[C@H](CC(C)C)NC(=O)[C@H](CCCNC(=N)N)NC(=O)[C@H](CCC(N)=O)NC(=O)[C@@H](NC(=O)[C@H](C)NC(=O)[C@@H]1CSSC[C@H](NC(=O)[C@@H](N)CCCCNC(=O)CC[C@H](NC(=O)CCCCCCCCCCCCCCCCCCC(=O)O)C(=O)O)C(=O)N[C@@H](CC(N)=O)C(=O)N[C@@H]([C@@H](C)O)C(=O)N[C@@H](C)C(=O)N[C@@H]([C@@H](C)O)C(=O)N1)[C@@H](C)O)C(=O)N1CCC[C@H]1C(=O)N[C@@H](CO)C(=O)N[C@@H](CO)C(=O)N[C@H](C(=O)N[C@@H](CC(N)=O)C(=O)N[C@H](C(=O)NCC(=O)N1CCC[C@H]1C(=O)N[C@@H](CC(N)=O)C(=O)N[C@H](C(=O)N[C@@H](Cc1ccc(O)cc1)C(N)=O)[C@@H](C)O)C(C)C)[C@@H](C)O
notes: synthetic analogue of human amylin; also called compound 67

Ratio rCT/rAmylin binding [1]: 126 | IC50 [2]: 352 nM | IC50 [3]: 2.8 nM | Ratio hCT/hAmylin binding [4]: 159
B2: N^ε1-[(4S)-4-carboxy-4-[[(4S)-4-carboxy-4-(19-carboxynonadecanoylamino)butanoyl]amino]butanoyl]-[Arg17,Pro21,Pro27,His34]-h-amylin (peptide)
peptide: K([γGlu-γGlu-C20 diacid])CNTATCATQRLANFLRHSSPNFGAIPSSTNVGHNTY-NH2
modifications: disulfide 2-7; N-terminus assumed
SMILES: CC[C@H](C)[C@H](NC(=O)[C@H](C)NC(=O)CNC(=O)[C@H](Cc1ccccc1)NC(=O)[C@H](CC(N)=O)NC(=O)[C@@H]1CCCN1C(=O)[C@H](CO)NC(=O)[C@H](CO)NC(=O)[C@H](Cc1c[nH]cn1)NC(=O)[C@H](CCCNC(=N)N)NC(=O)[C@H](CC(C)C)NC(=O)[C@H](Cc1ccccc1)NC(=O)[C@H](CC(N)=O)NC(=O)[C@H](C)NC(=O)[C@H](CC(C)C)NC(=O)[C@H](CCCNC(=N)N)NC(=O)[C@H](CCC(N)=O)NC(=O)[C@@H](NC(=O)[C@H](C)NC(=O)[C@@H]1CSSC[C@H](NC(=O)[C@@H](N)CCCCNC(=O)CC[C@H](NC(=O)CC[C@H](NC(=O)CCCCCCCCCCCCCCCCCCC(=O)O)C(=O)O)C(=O)O)C(=O)N[C@@H](CC(N)=O)C(=O)N[C@@H]([C@@H](C)O)C(=O)N[C@@H](C)C(=O)N[C@@H]([C@@H](C)O)C(=O)N1)[C@@H](C)O)C(=O)N1CCC[C@H]1C(=O)N[C@@H](CO)C(=O)N[C@@H](CO)C(=O)N[C@H](C(=O)N[C@@H](CC(N)=O)C(=O)N[C@H](C(=O)NCC(=O)N[C@@H](Cc1c[nH]cn1)C(=O)N[C@@H](CC(N)=O)C(=O)N[C@H](C(=O)N[C@@H](Cc1ccc(O)cc1)C(N)=O)[C@@H](C)O)C(C)C)[C@@H](C)O
notes: synthetic analogue of human amylin; also called compound 86

Ratio rCT/rAmylin binding [1]: 48.8 | IC50 [2]: 115 nM | IC50 [3]: 2.37 nM | Ratio hCT/hAmylin binding [4]: 28
B3: N^ε1-[(4S)-4-carboxy-4-[[(4S)-4-carboxy-4-(19-carboxynonadecanoylamino)butanoyl]amino]butanoyl]-[Glu14,Arg17,Pro21,Pro27,Arg35]-h-amylin (peptide)
peptide: K([γGlu-γGlu-C20 diacid])CNTATCATQRLAEFLRHSSPNFGAIPSSTNVGSRTY-NH2
modifications: disulfide 2-7; N-terminus assumed
SMILES: CC[C@H](C)[C@H](NC(=O)[C@H](C)NC(=O)CNC(=O)[C@H](Cc1ccccc1)NC(=O)[C@H](CC(N)=O)NC(=O)[C@@H]1CCCN1C(=O)[C@H](CO)NC(=O)[C@H](CO)NC(=O)[C@H](Cc1c[nH]cn1)NC(=O)[C@H](CCCNC(=N)N)NC(=O)[C@H](CC(C)C)NC(=O)[C@H](Cc1ccccc1)NC(=O)[C@H](CCC(=O)O)NC(=O)[C@H](C)NC(=O)[C@H](CC(C)C)NC(=O)[C@H](CCCNC(=N)N)NC(=O)[C@H](CCC(N)=O)NC(=O)[C@@H](NC(=O)[C@H](C)NC(=O)[C@@H]1CSSC[C@H](NC(=O)[C@@H](N)CCCCNC(=O)CC[C@H](NC(=O)CC[C@H](NC(=O)CCCCCCCCCCCCCCCCCCC(=O)O)C(=O)O)C(=O)O)C(=O)N[C@@H](CC(N)=O)C(=O)N[C@@H]([C@@H](C)O)C(=O)N[C@@H](C)C(=O)N[C@@H]([C@@H](C)O)C(=O)N1)[C@@H](C)O)C(=O)N1CCC[C@H]1C(=O)N[C@@H](CO)C(=O)N[C@@H](CO)C(=O)N[C@H](C(=O)N[C@@H](CC(N)=O)C(=O)N[C@H](C(=O)NCC(=O)N[C@@H](CO)C(=O)N[C@@H](CCCNC(=N)N)C(=O)N[C@H](C(=O)N[C@@H](Cc1ccc(O)cc1)C(N)=O)[C@@H](C)O)C(C)C)[C@@H](C)O
notes: synthetic analogue of human amylin; also called compound 89

Ratio rCT/rAmylin binding [1]: 84.9 | IC50 [2]: 196 nM | IC50 [3]: 2.31 nM | Ratio hCT/hAmylin binding [4]: 46.5
B4: N^ε1-[(4S)-4-carboxy-4-[[(4S)-4-carboxy-4-(19-carboxynonadecanoylamino)butanoyl]amino]butanoyl]-[Glu14,Arg17,Pro21,Pro27,Arg34]-h-amylin (peptide)
peptide: K([γGlu-γGlu-C20 diacid])CNTATCATQRLAEFLRHSSPNFGAIPSSTNVGRNTY-NH2
modifications: disulfide 2-7; N-terminus assumed
SMILES: CC[C@H](C)[C@H](NC(=O)[C@H](C)NC(=O)CNC(=O)[C@H](Cc1ccccc1)NC(=O)[C@H](CC(N)=O)NC(=O)[C@@H]1CCCN1C(=O)[C@H](CO)NC(=O)[C@H](CO)NC(=O)[C@H](Cc1c[nH]cn1)NC(=O)[C@H](CCCNC(=N)N)NC(=O)[C@H](CC(C)C)NC(=O)[C@H](Cc1ccccc1)NC(=O)[C@H](CCC(=O)O)NC(=O)[C@H](C)NC(=O)[C@H](CC(C)C)NC(=O)[C@H](CCCNC(=N)N)NC(=O)[C@H](CCC(N)=O)NC(=O)[C@@H](NC(=O)[C@H](C)NC(=O)[C@@H]1CSSC[C@H](NC(=O)[C@@H](N)CCCCNC(=O)CC[C@H](NC(=O)CC[C@H](NC(=O)CCCCCCCCCCCCCCCCCCC(=O)O)C(=O)O)C(=O)O)C(=O)N[C@@H](CC(N)=O)C(=O)N[C@@H]([C@@H](C)O)C(=O)N[C@@H](C)C(=O)N[C@@H]([C@@H](C)O)C(=O)N1)[C@@H](C)O)C(=O)N1CCC[C@H]1C(=O)N[C@@H](CO)C(=O)N[C@@H](CO)C(=O)N[C@H](C(=O)N[C@@H](CC(N)=O)C(=O)N[C@H](C(=O)NCC(=O)N[C@@H](CCCNC(=N)N)C(=O)N[C@@H](CC(N)=O)C(=O)N[C@H](C(=O)N[C@@H](Cc1ccc(O)cc1)C(N)=O)[C@@H](C)O)C(C)C)[C@@H](C)O
notes: synthetic analogue of human amylin; also called compound 88
